Reference: publication PMC13371181, “A paracrine-to-autocrine shunt of GREM1 fuels colorectal cancer metastasis via ACVR1C” (Molecular Cancer, 2026)
“Also recorded” adds a separate entry of the source. Each block holds one molecule with its values, some of them ahead of it.

What was measured:
HCT116 and SW480 cells = test: EMT markers by immunoblotting and RT–qPCR; type: cell-based, human; settings: GREM1-CM + GREM1 BAb, + SB505124 (1 µM) or + different concentrations of sb4 (sb4: immunoblotting)
Procedure: (§1) To investigate the effect of secreted GREM1 on CRC cells, an in vitro GREM1 secretion system was established using HEK293 cells. Stably GREM1-expressing cells (pcDNA3.1-GREM1) and empty-vector transfected cells (pcDNA3.1) were cultured in DMEM/F12 medium with 10% FBS until 40% confluence. After complete removal of the normal culture medium, HEK293-GREM1 and HEK293-Vec cells were continuously cultured in DMEM/F12 medium without FBS for 5 days before medium collection. GREM1 or Vector conditioned medium (GREM1-CM/Vec-CM) was then centrifuged at 1000 rpm for 30 min and the supernatant was collected for further study.
(§2) Protein was extracted from the cells with RIPA buffer (Beyotime, P0018) or NP40 lysis buffer (Beyotime, P0013F) and separated by SDS-PAGE, and transferred to polyvinylidene difluoride membranes. […] Band intensity was quantified using Fiji (ImageJ) by grayscale analysis.
(§3) Total RNA was extracted using Trizol reagent (Invitrogen, 15596026). […] The SYBR Green Premix Pro Taq HS qPCR Kit (Accurate Biology, AG11701) was then used to quantify mRNA expression according to the manufacturer’s instructions. All results were calculated using the 2^−ΔΔCt method. […]

[1] = test system: BMP signaling (p-SMAD1/5/9 versus p-SMAD2/3); settings: sb4; cited from earlier work
Excerpt: Considering that GREM1 is a canonical antagonist of BMP and that BMPRs exert their function through phosphorylation of SMAD1/5/9 (p-SMAD1/5/9), we sought to determine whether GREM1 regulates EMT via BMPR superfamily pathways. […] This definitive exclusion of BMPR–SMAD1/5/9 involvement establish ...

GREM1 = molecular target: T1, GREM1 (Homo sapiens, UniProt O60565); test: MST binding of ACVR1C-ECD double mutant (E85A/T101A) to GREM1-His; settings: double mutant 0–27.5 µM vs 50 nM red-labeled GREM1-His, PBS pH 7.4
T1 construct: His; purchased R&D 5190-GR
T1 sequence (O60565 25-184): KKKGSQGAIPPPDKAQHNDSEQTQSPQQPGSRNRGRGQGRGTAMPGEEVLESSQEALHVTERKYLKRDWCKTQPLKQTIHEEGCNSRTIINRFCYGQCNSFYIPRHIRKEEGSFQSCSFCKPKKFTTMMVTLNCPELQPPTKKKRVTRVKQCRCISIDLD
Excerpt: (§4) Expi293F cells were transfected with a pcDNA3.4-ACVR1C-ECD-Fc and pcDNA3.4-ACVR1C-ECD-Fc-double mutant (E85A/T101A) expression vector to produce the target protein, which was subsequently purified using a Protein G column. Briefly, the coding sequence (CDS) of the human ACVR1C extracellular domain (ACVR1C-ECD, NM_145259.3, residues 1–113) fused to an Fc tag was cloned into the pcDNA3.4 vector. Expi293F cells were transfected with this construct, the supernatant was harvested 5 days post transfection.
(§5) MST was carried out on a Monolith NT.115 instrument (NanoTemper Technologies GmbH, MO-L011). To evaluate ACVR1C-ECD or ACVR1C peptide or ACVR1C-ECD-double mutant (E85A/T101A) binding to GREM1-His or ACTIVIN B-His, an increasing concentration of purified ACVR1C-ECD-Fc protein (0–27.5 µM) or ACVR1C peptide (0–2.3 µM) or ACVR1C-ECD-double mutant (0–27.5 µM) was incubated with 50 nM red-fluorescently labeled (NanoTemper Technologies GmbH, MO-L011) GREM1-His protein (R&D, 5190-GR) or ACTIVIN B-His protein (SinoBiological, 10814-H08H). Experiments were carried out in a PBS buffer pH 7.4 using premium capillaries (NanoTemper Technologies GmbH, MO-K025).

ACVR1C-ECD = test: MST binding of ACVR1C-ECD-Fc to GREM1-His or ACTIVIN B-His; parameters: species or system human
Excerpt: as §4, §5

ACVR1C = test: Co-immunoprecipitation of GREM1 and ACVR1C; type: binding, human; settings: HCT116 cells, HA-tagged GREM1, anti-HA
Procedure: (§6) HCT116 cells were transfected with the indicated plasmids and lysed in NP40 lysis buffer (Beyotime, P0013F) supplemented with protease inhibitor cocktail (Thermo, 78446). Lysates were incubated with the indicated Anti-Flag nanobody magarose beads (Ktsm-life, KTSM1338), Anti-HA nanobody magarose beads (Ktsm-life, KTSM1335) or Anti-GFP nanobody magarose beads (Ktsm-life, KTSM1334) overnight at 4 °C. The protein complex was washed four times with the NP40 lysis buffer, eluted with 1×loading buffer (Beyotime, P0015) by boiling for 5 min, followed by mass spectrometry and immunoblotting with the indicated antibodies.
(§7) Protein was extracted from the cells with RIPA buffer (Beyotime, P0018) or NP40 lysis buffer (Beyotime, P0013F) and separated by SDS-PAGE, and transferred to polyvinylidene difluoride membranes. Primary antibodies against GREM1 (1:1,000, SinoBiological, 50016-R117), ACVR1C (1:1,000, Thermo, PA587475), Flag-tag (1:1,000, CST, 14793), HA-tag (1:1,000, CST, 3724), E-Cadherin (1:1,000, CST, 3195), β-Catenin (1:1,000, CST, 8480), ZEB1 (1:1,000, CST, 3396), Snail (1:1,000, CST, 3879), SMAD2/3 (1:1,000, CST, 8685), p-SMAD2/3 (1:1,000, CST, 8828), SMAD1 (1:1,000, CST, 6944), p-SMAD1/5/9 (1:1,000, CST, 13820), TGFβ (1:1,000, CST, 3709), TGFβR1 (0.3 µg/mL, R&D, AF3025), β-actin (1:5,000, Beyotime, AF0003) and GAPDH (1:5,000, Beyotime, AF0006) were used in this study. Peroxidase-conjugated secondary antibody (1:10,000, Cell Signaling Technology, 7074, 7076) was used and signal was visualized using an enhanced chemiluminescence assay (ECL, Thermo), according to the manufacturer’s protocol. Band intensity was quantified using Fiji (ImageJ) by grayscale analysis.

TGFβR1 = test: Co-immunoprecipitation of GREM1 and TGFβR1; type: binding, human; settings: HCT116 cells, HA-tagged GREM1, anti-HA
Procedure: as §6, §2

HCT116 cells = test: Subcutaneous transplantation of GREM1-CM-pretreated HCT116 cells in nude mice; type: in vivo, human cells in nude mice; settings: subcutaneous model, HCT116 cells pretreated with GREM1-CM (Figures S8A–C)
Procedure: For cecum-to-liver metastasis model, 1 × 10^6 MC38-luc cells were resuspended in 50 µL of PBS and injected into the cecum of GD mice or control mice (Grem1-CreER^T2/Rosa-LSL-DTA mice) (n = 6 mice in each group); 5 × 10^6 HCT116-luc cells transduced with lentivirus carrying a pLV or pLV-GREM1 were injected into the cecum of NOG mice (n = 5 mice in each group). SB505124 was administered via intraperitoneal injection at a dose of 10 mg/kg once every other day. The metastases were examined every 5 days post injection using an IVIS Lumina Imaging System. Mice were euthanized between 2 and 6 weeks after injection. […] Mice were euthanized 4 weeks after injection. The tumor tissues were collected for further evaluation.
Figure S8. SB505124 inhibits GREM1-CM-induced EMT and metastasis of CRC in vivo. […] D, RT–qPCR analysis of epithelial marker CDH1 and mesenchymal markers CTNNB1, SNAI1, ZEB1 in subcutaneous tumor tissues from the indicated treatment groups. n = 3 independent experiments. E-G, Representative IF images (E) and quantification (F, G) of E-CAD (green), SNAIL (red), and DAPI (blue) staining in tumors from the indicated groups. […] H, I, Representative IVIS images (H) and quantification (I) of NOG mice that were injected with HCT116-luc cells in the cecum wall and treated with either SB505124 or vehicle via abdominal injection. Liver metastases were imaged and quantified using the IVIS Lumina Imaging System (n = 5 mice per group). For B–D, F, G and I, data are presented as mean ± s.e.m. P values were calculated using one-way ANOVA with Bonferroni multiple-comparison test (B–D, F, and G) or two-tailed Student’s t-test (I).

[2] = test system: ACVR1C–SMAD2/3 pathway in HCT116 and SW480 cells; test: Immunoblotting p-SMAD2/3 (ACVR1C pathway); type: cell-based, human; settings: SW480 and HCT116 cells, increasing concentrations of rhGREM1
Procedure: as §1, §2

[3] = test system: BMPR–SMAD1/5/9 pathway in HCT116 or SW480 cells; test: Immunoblotting p-SMAD1/5/9 (BMPR pathway); type: cell-based, human; settings: rhGREM1 gradient
Excerpt: as §7

[4] = test system: TGFβ or TGFβR1 in CRC cells; test: Immunoblotting TGFβ and TGFβR1 expression; type: cell-based, human; settings: CRC cells (HCT116, SW480), rhGREM1 gradient
Excerpt: as §7

SW480 and HCT116 cells = test: Endogenous GREM1 expression by RT–qPCR and immunoblotting; type: cell-based, human; settings: increasing concentrations of rhGREM1, RT–qPCR (n = 3) and immunoblotting
Excerpt: as §7, §3

[5] = test system: CRC cells (SW480, HCT116, and MC38); test: GREM1 withdrawal assay, RT–qPCR and immunoblot; type: cell-based, human (SW480, mouse (MC38); settings: rhGREM1 or rmGrem1 200 ng/mL 24 h, then GREM1-free medium 2 and 4 days
Procedure: To determine whether tumor cells that have acquired signaling autonomy can sustain GREM1 expression in the absence of external stimulation, we performed a GREM1 withdrawal assay. CRC cells (SW480, HCT116, and MC38) were first pulsed with rhGREM1 or recombinant mouse GREM1 (rmGrem1) for 24 h to initiate the signaling response. The medium containing rhGREM1 or rmGrem1 was then thoroughly removed, replaced with fresh GREM1-free medium, and the cells were cultured for an additional 4 days. […] This persistent, self-sustaining expression supports our conclusion that the initial rhGREM1 or rmGrem1 stimulation triggers a positive feedback loop of GREM1 transcription within CRC cells.
as §2, §3

- binding of ACVR1C-ECD double mutant to GREM1 (GREM1): no detectable interaction
B1: ACVR1C-ECD double mutant (E85A/T101A): human ACVR1C extracellular domain fused to an Fc tag, double mutant E85A/T101A (protein)
chain: ELSPGLKCVCLLCDSSNFTCQTEGACWASVMLTNGKEQVIKSCVSLPELNAQVFCHSSNNVTKTACCFTDFCNNITLHLPAASPNAPKLGPME
modifications: left off: Fc, end not stated, kept

- affinity for ACVR1C relative to ACTIVIN B, in words (ACVR1C-ECD): superior affinity
- fold higher affinity for ACVR1C-ECD than ACTIVIN B (ACVR1C-ECD; GREM1 Kd versus ACTIVIN B Kd): 12.6 fold
- Kd (ACVR1C-ECD; Monolith NT.115, ACVR1C-ECD-Fc 0–27.5 µM vs 50 nM red-fluorescently labeled His-protein, PBS pH 7.4, premium capillaries, n = 3 independent experiments, mean ± s.e.m.): 67.7 ± 10.3 nM
B2: GREM1: GREM1-His protein (R&D, 5190-GR) in MST; HA-tagged GREM1 in co-IP (protein)
chain: T1 sequence (O60565 25-184)
modifications: left off: HA, end not stated, kept | mCherry, end not stated, kept
notes: GREM1-His protein (R&D, 5190-GR) in MST; HA-tagged GREM1 in co-IP
- co-IP interaction with ACVR1C (ACVR1C): co-immunoprecipitates with ACVR1C; also recorded: interacted with ACVR1C specifically
- co-IP interaction with TGFβR1 (TGFβR1): no such interaction was detected; also recorded: no direct interaction
- effect on subcutaneous tumor proliferation (HCT116 cells): pro-proliferative effect

The remaining lines, values behind:

Molecule: Brc1ccc(CSc2nc3ccccc3o2)cc1 [sb4]
- GREM1-CM-induced EMT, effect of treatment (HCT116 and SW480 cells): failed to reverse GREM1-induced EMT
- p-SMAD1/5/9 selectivity [1]: exclusively increases p-SMAD1/5/9 without affecting p-SMAD2/3

B3: rhGREM1: recombinant human GREM1 (protein)
chain: T1 sequence (O60565 25-184)
modifications: red fluorescent label (NanoTemper, MO-L011) in the MST assays; left off: His, end not stated, kept
notes: recombinant human GREM1
- p-SMAD2/3, concentration gradient [2]: dose-dependent increase in p-SMAD2/3
- p-SMAD1/5/9 [3]: suppressed the p-SMAD1/5/9
- TGFβ or TGFβR1 expression [4]: No changes were observed across all doses tested
- endogenous GREM1 expression (SW480 and HCT116 cells): dose-dependent upregulation of tumor GREM1 expression
- endogenous GREM1 expression after withdrawal [5]: not only maintained but in some cases further increased even after the withdrawal of exogenous GREM1; also recorded: maintained elevated endogenous GREM1 expression even after withdrawal of exogenous GREM1
